The record followed here is US20100037349A1 (University of California, published 2010).

In test [1] the target is Arabidopsis NPR1 protein (Arabidopsis) (UniProt P93002). In words: cell-based or functional assay.
The next test addresses T1, Arabidopsis NPR1 protein (Arabidopsis, UniProt P93002 1-593, limits assumed).
T1 construct: In the plant experiments it is the endogenous NPR1; also called NIM1; SAI1
T1 sequence (looked up): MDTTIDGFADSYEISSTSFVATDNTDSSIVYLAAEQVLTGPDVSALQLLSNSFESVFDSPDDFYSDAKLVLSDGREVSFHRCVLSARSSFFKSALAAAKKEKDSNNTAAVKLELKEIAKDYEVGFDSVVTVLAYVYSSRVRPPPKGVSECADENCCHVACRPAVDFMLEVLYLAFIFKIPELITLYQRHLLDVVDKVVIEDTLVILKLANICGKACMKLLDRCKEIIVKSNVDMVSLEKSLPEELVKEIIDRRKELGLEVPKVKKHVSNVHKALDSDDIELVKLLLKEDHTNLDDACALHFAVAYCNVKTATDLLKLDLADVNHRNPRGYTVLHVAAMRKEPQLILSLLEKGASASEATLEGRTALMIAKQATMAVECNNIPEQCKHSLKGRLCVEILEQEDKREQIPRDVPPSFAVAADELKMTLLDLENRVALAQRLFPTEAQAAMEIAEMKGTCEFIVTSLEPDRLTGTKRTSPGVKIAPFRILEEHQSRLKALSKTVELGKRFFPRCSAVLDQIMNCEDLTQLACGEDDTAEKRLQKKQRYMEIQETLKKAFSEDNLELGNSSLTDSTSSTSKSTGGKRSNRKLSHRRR
In words: interaction assay (yeast), summary of the examples.

In test [1], “NIAD fusion protein (N-terminal first 52 amino acids of NRR fused to a VP16 activation domain) (from UniProt P06492 413-490)” came in with a GUS activity from the BG2-Gus reporter after 0.1 mM INA induction (transgenic Arabidopsis line NIAD-22, repeat assay) of 2 fold over WT and a Pst DC3000 bacterial populations at day 4, wild type relative to the NIAD lines of 4 to 5 fold.

B1: rice NRR (Negative Regulator of disease Resistance) protein, wild type (other)
chain: MDATTTDATTAKRKRPAASDIADDAPTTVDEVSDAEVEEFYAILRRMRDATRRLGARPPPPRAPAWRPSFSWEDFADAPPKQAPPPPQQPADHERVAENATPPRRPAPGLDLNVEPPSDAPATPRSARAPA
notes: also called wild type NRR
In the case of B1, in the test with Arabidopsis NPR1 protein, the binding result was “binds”.

B2: NRR single point mutant E39K (other)
chain: MDATTTDATTAKRKRPAASDIADDAPTTVDEVSDAEVEKFYAILRRMRDATRRLGARPPPPRAPAWRPSFSWEDFADAPPKQAPPPPQQPADHERVAENATPPRRPAPGLDLNVEPPSDAPATPRSARAPA
notes: also called EK
As to B2, the binding result in the test with Arabidopsis NPR1 protein is given as “binds”.
